Laboratory results: patent US12139531B2, “Compositions and methods useful in promoting milk production” (The Regents of the University of California, priority 2019, dated 2024)
Entries after “also recorded” stand apart in the source; their conditions may differ.

Key:
[1] = tested on: bovine alveolar progenitor cells (AVPs); assay: Organoid growth of FACS-purified bovine alveolar progenitor cells in Matrigel; format: cell-based; settings: single cells in Matrigel, 10 days, vs untreated controls
Procedure: The influence of ROBO1 ECD fragments in vitro on primary alveolar progenitor cell growth and in vivo on branching morphogenesis was tested. FACS-purified murine and bovine alveolar progenitor cells (AVPs) were plated as single cells in Matrigel and grown for 10 days in the absence and presence of ROBO1-ECDs fragments (FIGS. 9A, B). […] ROBO1-Ig5 fragments were also tested in vivo by subcutaneously injecting them (7.5 mammary gland/kg/day) into ovariectomized animals that were orally administered hormones in Nutella: estrogen (E, 1 μg/day), progesterone (P, 1 mg/day mammary gland/day) and prolactin (Prl, 0.2 mg/day mammary gland/day) (FIG. 9C). The mammary glands were harvested after 14 days of ROBO1-Ig5 fragment treatment, carmine stained and evaluated. […] Other aspects can involve ROBO1-ECD constructs that are tagged with the murine-Fc sequence. This tag is recognized by an endogenous receptor that facilitates transport into tissues 4.
FACS purified AVPs were cultured in Matrigel (BD Bioscience) at a density of 5000 cell/100 uL and cultured in basal medium; DMEM: F12 phenol-free, 10 mM HEPES, N2 (Gibco), B27 (Gibco) supplemented with 100 ng/mL Neuregulin (R&D), 42.5 ng/mL R-Spondin1 (Peprotech) […]. […]

[2] = tested on: HC11 cells; assay: HC11 dome assay (milk dome formation on differentiation in DIP media); format: cell-based, mouse
Procedure: To investigate ROBO1 function during alveologenesis, Robo1 gene expression was inhibited in HC11 cells (Robo1 KD). HC11 cells are a well-established, prolactin-responsive model of lactation,^19,20. Cells in which Robo1 gene expression was not inhibited are referred to as WT or Robo1+/+ herein. To measure milk production, cells were grown to confluence and then primed by treatment with epidermal growth factor (EGF, 10 ng/ml). The EGF is administered for three days in combination with charcoal-stripped fetal bovine serum, followed by one day of charcoal-stripped fetal bovine serum in the absence of EGF. These primed cells are then differentiated by treatment with dexamethasone (1 μg/ml), insulin (5 μg/ml) and prolactin (Prl, 5 μg/ml) media (DIP media) for between 3 and 5 days (FIG. 2A). Differentiation (Dif) results in the development of milk-filled domes (FIG. 2B). […] If the cells were left undifferentiated (Undif), there was little dome formation in either WT or Robo1−/− cells (FIG. 2B). Next, tissue from Robo1 knockout mice (Robo1−/−) and wild type mice (WT or Robo1+/+) mice was analyzed. Mammary glands were harvested from pregnant day 18 WT and Robo1−/− animals and alveologenesis analyzed by serially sectioning, carmine staining and then quantifying the area occupied by alveoli in sections located at top, middle and bottom portions of the tissue.
Dome number formation in response to a titration of ROBO1 ECD fragments was quantified. […] A bovine ROBO1-Ig5 construct was also tested in this assay and, as with the rat constructs, more domes were formed in response to treatment with higher concentrations of […] (FIG. 7H).
HC11 cells were grown in RPMI 1640 media (Gibco) supplemented with 10% fetal bovine serum (BioFluid Technologies), 5 μg/mL insulin (Sigma), and 10 ng/ml epidermal growth factor (EGF; Sigma). To induce differentiation in HC11 cells, confluent plates were given fresh media (RPMI 1640 media supplemented with 5% charcoal-stripped fetal bovine serum (BioFluid Technologies), 5 μg/mL insulin, and 10 ng/ml epidermal growth factor (EGF; Sigma) for 3 days followed by 24 hours of priming in priming medium (RPMI 1640 media supplemented with 5% charcoal-stripped fetal bovine serum (BioFluid Technologies), and 5 μg/mL insulin. After priming, DIP medium (RPMI 1640 media supplemented with 5% charcoal-stripped fetal bovine serum (BioFluid Technologies), 10^−6 M dexamethasone (Sigma), 5 μg/mL insulin, and 5 μg/mL prolactin (National Hormone and Peptide program) was added with fresh media every 24 hours.

[3] = tested on: Notch signaling; assay: RT-qPCR of Notch effector expression (Hey1, Hes1) in HC11 cells; format: cell-based, mouse; settings: HC11 cells treated with ROBO1-ECD fragments
Procedure: To examine the effects of ROBO1-ECD fragments on Notch signaling, HC11 cells were treated with ROBO1-ECD fragments and Notch effector expression assessed. […] In addition, HC11 cells were treated with ROBO-Ig5 during differentiation. These cells were then fractionated and a Western blot performed to detect HES1 and NOTCH4-ICD (FIG. 8B).
Total RNA was harvested from cells lysed in TRIzol reagent (Invitrogen) and phase separated according to manufacturer's protocol with an additional overnight RNA precipitation stem in ethanol (Macias et al., 2011). The RNA was further purified with TURBO DNase (Ambion) treatment. Total RNA quality was analyzed by agarose gel electrophoresis and quantified with an ND-1000 spectrophotometer (NanoDrop). cDNA libraries were prepared from 1 μg of total RNA using iScript cDNA synthesis kit (BioRad). Quantitative RT-PCR was performed in triplicates using light Cycler 480 SYBR Green I Master (Roche) and quantified using BioRad CFX'Connect Real-Time System and CFX Manager software (BioRad). Results were normalized to GAPDH.

B1: ROBO1-Ig5: recombinant soluble ROBO1 ECD construct comprising all five Ig domains (protein)
chain: SRLRQEDFPPRIVEHPSDLIVSKGEPATLNCKAEGRPTPTIEWYKGGERVETDKDDPRSHRMLLPSGSLFFLRIVHGRKSRPDEGVYICVARNYLGEAVSHNASLEVAILRDDFRQNPSDVMVAVGEPAVMECQPPRGHPEPTISWKKDGSPLDDKDERITIRGGKLMITYTRKSDAGKYVCVGTNMVGERESEVAELTVLERPSFVKRPSNLAVTVDDSAEFKCEARGDPVPTVRWRKDDGELPKSRYEIRDDHTLKIRKVTAGDMGSYTCVAENMVGKAEASATLTVQEPPHFVVKPRDQVVALGRTVTFQCEATGNPQPAIFWRREGSQNLLFSYQPPQSSSRFSVSQTGDLTVTNVQRSDVGYYICQTLNVAGSIITKAYLEVTDVIADRPPPVIRQGPVNQTVAVDGTLTLSCVATGSPVPTILWRKDGVLVSTQDSRIKQLESGVLQIRYAKLGDTGRYTCTASTPSGEATWSAYIEVQEF
- size of bovine organoids [1]: larger bovine organoids; also recorded: increased the size
- dome formation in control cells (Scr) ([2]; HC11 Scramble KD (Scr) cells, ROBO1-ECD treatment): increased dome formation
- dome formation in response to a titration of ECD fragments ([2]; HC11 cells, increasing ECD concentration): higher rates of dome formation
- dome formation with ECD fragments generated in the presence of heparin ([2]; HC11 cells, vs same fragments generated in the absence of heparin (300 ng/ml)): fewer domes; also recorded: diminished
- dome formation in Notch4 knockdown cells (shNotch4) ([2]; HC11 shNotch4 cells, ROBO1-Ig5 treatment): same level of dome formation as untreated Notch4 knockdown cells; also recorded: unaffected
- dome formation in cells in which Robo1 expression was inhibited (shRobo1) ([2]; HC11 shRobo1 cells, ROBO1-Ig5 treatment): same level as that of control cells (Scr) treated with ROBO1-ECD fragments; also recorded: rescued
- Hes1 expression [3]: lower expression; also recorded: decreased
- Hey1 expression [3]: lower expression; also recorded: decreased
